# The nanobody polyreactivity screen of Harvey et al. (2022)
# Test: yeast display, Sf9 membrane polyspecificity reagent, FACS + sequencing; frameworks hold sequencing errors
# Summary of the method: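 In a synthetic yeast display library (Saccharomyces cerevisiae BJ5465), nanobody expression was induced with galactose for 36–48 hours. FACS gates were set low and high (top ~1%) using anti-HA fluorescence for expression and streptavidin fluorescence for binding of the Sf9 membrane reagent. Each polyreactivity label is drawn from the gate of origin.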
row,Sequence,polyreactivity (PSR sort gate)
1,QVQLVESGGGLVQAGGSLRLSCAASGSILNSYAMGWYRQAPGKERELVASITVIGGSTYYADSVKGRFSISRDNAKNTDYLQMNSLKPEDTAVYYCNKEWIIADAYYGVHDYYYWGQGTQVTVSS,low polyreactivity
2,QVQLVESGGGLVQAGGSLRLSCAASGSILPDYAMGWYRQAPGKERELVASITNSGDSTYYADSVKGRFTISRDNAKNPVYLQMNSLKPEDTAVYYCNADSVRYDYSANDYEYWGQGSQVTVSS,high polyreactivity
3,QVQLVESGGGLVQAGGSLRLSCAASGSILPVNAMGWYRQAPGKERELVAAITSSGSTTYADSVKGRFTISRDNAKNTVYLQMNSLKEEDTAVYYCAADVYWSYYLYYIYKGGYWGQGTQVTVSS,low polyreactivity
4,QVQLVESGGGLVQAGGSLRLSCAASGSILRDHAMGWYRQATGKERELVAAITSGDSTHYADSVKGRFTISRDNAKNTVYLQMNSLKPEDTAVYYCATKWSLISIHGYYYWGQGTQVTVSS,low polyreactivity
5,QVQLVESGGGLVQAGGSLRLSCAASGSILRPNVMGWYRQAPGKERELVARISSRGVNTYYADSVKGRFTLSRDNAKNTVYLQMHSLKPEDTAVFYCNARRAQYYWNRSAKYDYWGQGTQVTVSS,high polyreactivity
6,QVQLVESGGGLVQAGGSLRLSCAASGSILRQYAMGWYRQAPGKERELVATITGDGSTNYADSVKGRFTISRDNAKNTVYLQMNSLKPEDTAVYYCAADQTYTYEYWGQGTQVTVSS,low polyreactivity
7,QVQLVESGGGLVQAGGSLRLSCAASGSILRQYAMGWYRQAPGKERELVATITGDGSTNYADSVKGRFTISRDNAKNTVYLQMNSLKPEDTAVYYCNAELPVHWSWYDYWGQGTQVTVSS,low polyreactivity
8,QVQLVESGGGLVQAGGSLRLSCAASGSILRRYAMGWYRQAPGKEREFVAAISYSGSRTYYADSVKGRFTISRDNAKNTVYLQMNSLKPEDTAVYYCAADSYGSRYEYWGQGTQVTVSS,high polyreactivity
9,QVQLVESGGGLVQAGGSLRLSCAASGSILRSNAMGWYRQAPGKERELVATITNSGGSTYADSVKGCFTISRDNAKNTVYLQMNSLKPEDTAVYYCAKAGAGESIAKYDYWGQGTQVTVSS,low polyreactivity
10,QVQLVESGGGLVQAGGSLRLSCAASGSILSGYAMGWYRQAPGKETELVAAITSGGDTNYADSVKGRFTISRDNAKNTVYLQMNSLKPEDTAVYYCNRRGDFRIAYYDPMDYWGQGTQVTVSS,low polyreactivity
11,QVQLVESGGGLVQAGGSLRLSCAASGSILSLYTMGWYRQAPGKERELVAAITSRGTRTYYADSVKGRFTISRDYAKNTVYLQMNRLKPEDTAVYYCAAGSYYWGQGTQVTVSS,high polyreactivity
12,QVQLVESGGGLVQAGGSLRLSCAASGSILSSYAMGWYRQAPGKERELVAAISYTGDSTYYADSVKGRFTISRDNAKNTVYLQMNSLKPEDTAVYYCAAELLPPYYYRWLEYWGQGTQVTVSS,low polyreactivity
13,QVQLVESGGGLVQAGGSLRLSCAASGSILSTYAMGWYRQAPGKERELVASISSNAGSTYYADSVKGRFTISRDNAKNTVYLQMNSLKPEDTAVYYCATESYVEGDYWGQGTQVTVSS,low polyreactivity
14,QVQLVESGGGLVQAGGSLRLSCAASGSILSYYVMGWYRPAPGKERELVAAITSDGSTNYADSVKGRFTISRDNAKNTVYLQMNSLKPEDTAVYYCAAVIAWYYGVQDVYYLGLYDYWGQGTQVTVSS,low polyreactivity
15,QVQLVESGGGLVQAGGSLRLSCAASGSILTHYAMGWYRQAPGKERELVAGIPWSGTSTYYADSVKGRFTISRDNAKNTVYLQMNSLKPEDTAVYYCNARHYGWGFAWKYDYWGQGTQVTVSS,low polyreactivity
16,QVQLVESGGGLVQAGGSLRLSCAASGSILTVYAMGWYRQAPGKERELVARIRSGDRTYYADSVKGRFTISRDNAKNSVYLQMNSLKPEDTAVYYFAAGSQLRYYHTNWDSFNYWGQGTQVTVSS,low polyreactivity
17,QVQLVESGGGLVQAGGSLRLSCAASGSILTWYPMGWYRQAPRKERELVAAITRGGSTYADSVKGRFTISRDNAKNTVYLQMNILKPEDTAVYYCKAVYGVYVFNYWGQGTQVSVSS,low polyreactivity
18,QVQLVESGGGLVQAGGSLRLSCAASGSILVDNAMASYRQAPGKERELVARITGSGGSTYYADSVKGRFTISRDNAKNSVYLQMHILKPEDTAVYYCAARRVNAGWTYGLRGNYWGQGTQVTVSS,low polyreactivity
19,QVQLVESGGGLVQAGGSLRLSCAASGSILVHYSMGWYRQAPGKERELVAAISRGGSTNYADSVKGRFTISRDNAKNTVYLQMNSLKPEDTAVYYCAARRPWGEYYWGQGTQVTVSS,low polyreactivity
20,QVQLVESGGGLVQAGGSLRLSCAASGSILVSYAMARYSQAPGKERELVAAISGNSDSTYYADSVKGRFTISRDNAKNTVYLQMNSLKPEDTAVYYCAKEGGNGYDYWGQGTQVTVSS,low polyreactivity
21,QVQLVESGGGLVQAGGSLRLSCAASGSILVSYAMGWYRQAPGKERELVAAITSGGRTKYADSVKGRFTISRDNAKNTVYLQMNSLKPEDTAVYYCAADDPLSYQFDYWGQGTQVTVSS,high polyreactivity

row,Sequence,polyreactivity (PSR sort gate)
1,QVQLVESGGGLVQAGGSLRLSCAASGSILYAYAMGWYRQAPGKERELLAAISSSGGGTYADSVKGRFTISRDNAKNTVYLQMNSLKPEDTAVYYCNADARGGIYFRGVKFDYWGQGTQVTVSS,high polyreactivity
2,QVQLVESGGGLVQAGGSLRLSCAASGSILYINAMGWYRQAPGKERELVAAITYSGGSTYYADSVKGRFTISRDNAKNTVYLQMNSLKPEDTAVYYCAADAVVAGRYDGHDYWGQGTQVTVSS,low polyreactivity
3,QVQLVESGGGLVQAGGSLRLSCAASGSILYIYAMGWYRQAPGKERELVASINSGGSTYYADSVKGRFTISRDNAKNTVYLHMYSLKPEDTGVYYCAKQGVDYWGQGTQVTVSS,low polyreactivity
4,QVQLVESGGGLVQAGGSLRLSCAASGSILYRYTMGWDRQAPGKERELVAAISFSGGRTYYADSVKGRFTISRDNAKNTVYLQMNSLKPEDTAVYYCNAGTSGKYGYWGQGTQVTVSS,high polyreactivity
5,QVQLVESGGGLVQAGGSLRLSCAASGSILYSNMGWYRQAPGKERELVAAITYSGGRTYYADSVKGRFTISRDNAKNTVYLQMNSLKPEDTAVYYCAARLATYGASTYYYWGQGTQVTVSS,high polyreactivity
6,QVQLVESGGGLVQAGGSLRLSCAASGSILYTYAMGWYRQAPGKERELVASISSNAGSTYYADSVKGRFTISRDNAKNTVYLQMNSLKPEDTAVYYCNKVYGGGTYDYWGQGTQVTVSS,low polyreactivity
7,QVQLVESGGGLVQAGGSLRLSCAASGSILYTYAMGWYRQSPGKERELVAAISRGGGSTYYADSVKGRFTISRDNAKNSVYLQMNSLKPEDSAVYYCAARKLTRGSGRDDEYWGQGTQVTVSS,high polyreactivity
8,QVQLVESGGGLVQAGGSLRLSCAASGSIQGYVMGWYRQAPGKERELVAAITNGGSTYYADSVKGRFTISRDNAKNTVYLQMISLKPEDTAVYYCAKRKFRWPYQGSYSYIPFGYWGQGTQVTVSS,high polyreactivity
9,QVQLVESGGGLVQAGGSLRLSCAASGSIRSYAMGWYRQAPGKERELVAAITRSGGSTYYADSVKGRFTLSRDNAKNSVYLQMNSLKPEDTAVYYCAARYTYSYPYYRYNYWGQGTQVTVSS,high polyreactivity
10,QVQLVESGGGLVQAGGSLRLSCAASGSISADDVMGWYRQAPGKERELVAAISVSAGTTYYADSVKGRFTISRDNAKNSVYLQMNSLKPEDSAVYYCAATDSYYWLYYYGYSPGNDYWGQGTQVNVSS,low polyreactivity
11,QVQLVESGGGLVQAGGSLRLSCAASGSISFINAIGWYRQATGKERELVAAISGSGGSTYYADSVKGRFTISRDNAKNTVFLQMNSLKPEDTAVYYCAVPLPSRIYGYWGQGTQVTVSS,low polyreactivity
12,QVQLVESGGGLVQAGGSLRLSCAASGSISFINAMGWYRQAPGKERELVAAITPGASTNYADSVKGRFTISRDNAKNTVYLQLNSLKPEDTAVYFCAAGWVSFEDWVLGSYYEYDYWGLGTQVTVSS,low polyreactivity
13,QVQLVESGGGLVQAGGSLRLSCAASGSISGVYAMGWYRQAPGKERELVAAISRSGGSTYYADSVKGRFTISRDNAKNTVYLQMNSLKPEDTAVYYCAAEYTYYSYGGNYDYWGQGTQVTVSS,low polyreactivity
14,QVQLVESGGGLVQAGGSLRLSCAASGSISKGYAMGWYRQAPGKERELVARISGDGGSTYYADSVKGRFTISRDNAKNTVYLQMNSLKPEDTAVYYCNTRQQFTLTRGVFLHNYWGQGTQVTVSS,high polyreactivity
15,QVQLVESGGGLVQAGGSLRLSCAASGSISKSYAMGWYRQAPGKERELVAVITSGGNTYYADSVKGRFTISRDNAKNTVYLQMNSLKPEDTAVYYCAADYHWYTEDDYWGQGTQVTVSS,high polyreactivity
16,QVQLVESGGGLVQAGGSLRLSCAASGSISNFYAMGWYRQAPGKEREFVAAISTRDGTKRFADSVKGRFTISRDNAKNTVYLQMNSLKPEDTAVYYCAAKGGGVWLYARIYSDYYWGQGTQVTVSS,low polyreactivity
17,QVQLVESGGGLVQAGGSLRLSCAASGSISRLYAMRWYRQAPGKERELVARITSSGGRTYYADSVKGRFTISRDNAKNTVYLQMHSLKPEDTAVYYCAARGYVSVWRPYHWFVAGDYWGQGTQVTVSS,high polyreactivity
18,QVQLVESGGGLVQAGGSLRLSCAASGSISRQYALGWYRQAPGTERELVAAITVRGGSTYYADSVKGRFTISRDNAKNTVYLQMNSLKPEDTAVYYCAKYTRYSASYDYWGQGTQVTVSS,high polyreactivity
19,QVQLVESGGGLVQAGGSLRLSCAASGSISSAYAMGWYRQAPGKERELVAVITSGGSTNYADSVKGRFTISRDNAKNTVYLQMNSLKPEDTAVYYCNADTVAPLPYDYWGQGTQVTVSS,low polyreactivity
20,QVQLVESGGGLVQAGGSLRLSCAASGSISSYYAMGWYRQAPGQERELVAAITLNGGNTYYADSVKGRFTISRDNAKKTVYLQMNSLKPEDTAVYYCARRYRYGTKYYYWGQGTQVTVSS,high polyreactivity
